Read-outs that look alike come from different tables or passages of the source.
Experiments:
Spike Delta [1] = molecular target: Spike Delta (SARS-CoV-2)
Spike Delta [2] = molecular target: T1, Spike Delta (SARS-CoV-2); experiment: SPR, Delta spike as solid phase [panel C]
T1 construct: also called Delta spike; delta spike protein

B1: 1-Arm (designed binder)
LCB1 mini-binder coupled to a DNA handle that is hybridised to one arm of a 3-helix-bundle DNA nanostructure: DKEWILQKIYEIMRLLDELGHAEASMRVSDLIYEFMKKGDERLLEEAERLLEEVER
Kd (Spike Delta [1]): 140 pM

B2: 2-Arm (designed binder)
LCB1 mini-binder coupled to a DNA handle that is hybridised to an arm of a 3-helix-bundle DNA nanostructure: DKEWILQKIYEIMRLLDELGHAEASMRVSDLIYEFMKKGDERLLEEAERLLEEVER
Kd (Spike Delta [1]): 140 pM

B3: Tri-pdbody (designed binder)
LCB1 mini-binder coupled to a DNA handle that is hybridised to an arm of a 3-helix-bundle DNA nanostructure: DKEWILQKIYEIMRLLDELGHAEASMRVSDLIYEFMKKGDERLLEEAERLLEEVER
notes: also called 3-Arm; 3arm
Kd (Spike Delta [2]): 216 pM | Kd (Spike Delta [1]): 100 pM
